Data on two proteins can be found in article PMC11615320 (Communications Biology, 2024).

Series [1] deals with the molecule itself. In words: single-molecule TIRF microscopy, kinetics.
Series [2] concerns the molecule itself. In words: single-molecule TIRF microscopy, real-time dissociation.
Series [3] deals with the molecule itself. In words: single-molecule TIRF microscopy with step-photobleaching and intensity counting.

Substitutions are numbered along the chain they refer to. Names and notes keep the numbering of the source.

B1: cytosolic domain of Synaptotagmin-1 (Syt-1), residues 79 to 421, wild type (domain or fragment, rat, UniProt P21707 79-421, looked up)
chain: CKKSLFKKKNKKKGKEKGGKNAINMKDVKDLGKTMKDQALKDDDAETGLTDGEEKEEPKEEEKLGKLQYSLDYDFQNNQLLVGIIQAAELPALDMGGTSDPYVKVFLLPDKKKKFETKVHRKTLNPVFNEQFTFKVPYSELGGKTLVMAVYDFDRFSKHDIIGEFKVPMNTVDFGHVTEEWRDLQSAEKEEQEKLGDIAFSLRYVPTAGKLTVVILEAKNLKKMDVGGLSDPYVKIHLMQNGKRLKKKKTTIKKNTLNPYYNESFSFEVPFEQIQKVQVVVTVLDYDKIGKNDAIGKVFVGYNSTGAELRHWSDMLANPRRPIAQWHTLQVEEEVDAMLAVKK
modifications: AlexaFluor 647 maleimide or AlexaFluor 488 maleimide on Cys79
In the case of B1, in series [1], the “KD of the large clusters” value was 6 ± 2 nM and the “KD of the small clusters” value turned out to be 40 ± 8 nM. In addition, in series [2], the koff – broadly, the rate constant with which the complex falls apart – is 0.0024 ± 0.0004 s⁻¹. Moreover, the stoichiometry N (usually a count of units in the complex or per binding partner) in series [3] turned out to be 5 ± 2 copies.

B2: cytosolic domain (residues 79 to 421) of the Syt-1 F349A mutant (domain or fragment, rat, UniProt P21707 79-421, looked up)
chain: B1 chain with F271A
modifications: AlexaFluor 647 maleimide or AlexaFluor 488 maleimide on Cys79
In the case of B2, the Kd – broadly, the concentration at which binding is half-saturated – in series [1] worked out at 45 ± 15 nM. In series [2], this protein yielded a koff of 0.0017 ± 0.0003 s⁻¹.
